# In IntAct's records for PubMed 20142502:
# B1: pre-mRNA splicing regulator USH1G (Homo sapiens), Q495M9 (parent)
# chain: MNDQYHRAARDGYLELLKEATRKELNAPDEDGMTPTLWAAYHGNLESLRLIVSRGGDPDKCDIWGNTPLHLAASNGHLHCLSFLVSFGANIWCLDNDYHTPLDMAAMKGHMECVRYLDSIAAKQSSLNPKLVGKLKDKAFREAERRIRECAKLQRRHHERMERRYRRELAERSDTLSFSSLTSSTLSRRLQHLALGSHLPYSQATLHGTARGKTKMQKKLERRKQGGEGTFKVSEDGRKSARSLSGLQLGSDVMFVRQGTYANPKEWGRAPLRDMFLSDEDSVSRATLAAEPAHSEVSTDSGHDSLFTRPGLGTMVFRRNYLSSGLHGLGREDGGLDGVGAPRGRLQSSPSLDDDSLGSANSLQDRSCGEELPWDELDLGLDEDLEPETSPLETFLASLHMEDFAALLRQEKIDLEALMLCSDLDLRSISVPLGPRKKILGAVRRRRQAMERPPALEDTEL
# partner: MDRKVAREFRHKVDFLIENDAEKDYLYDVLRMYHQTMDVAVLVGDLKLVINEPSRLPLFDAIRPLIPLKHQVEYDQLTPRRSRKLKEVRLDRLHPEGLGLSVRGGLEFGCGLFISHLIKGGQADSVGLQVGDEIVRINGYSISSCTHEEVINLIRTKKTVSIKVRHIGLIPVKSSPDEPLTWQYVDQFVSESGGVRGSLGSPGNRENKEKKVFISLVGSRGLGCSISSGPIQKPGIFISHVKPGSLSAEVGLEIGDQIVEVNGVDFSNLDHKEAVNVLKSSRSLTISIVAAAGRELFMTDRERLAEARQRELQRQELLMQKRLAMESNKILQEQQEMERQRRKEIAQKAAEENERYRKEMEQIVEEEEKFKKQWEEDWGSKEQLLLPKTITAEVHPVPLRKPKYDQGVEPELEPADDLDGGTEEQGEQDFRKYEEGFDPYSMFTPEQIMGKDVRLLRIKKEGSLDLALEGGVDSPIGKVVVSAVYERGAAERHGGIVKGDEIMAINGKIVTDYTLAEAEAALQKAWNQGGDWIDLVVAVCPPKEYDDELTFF
# B2: Harmonin (Homo sapiens), Q9Y6N9 (parent)
# chain: B1 partner
# partner: B1 chain
# Variants of: B1
# Conditions: with ush1c_human USH1C, Q9Y6N9
row,Variant,effect of a mutation on the interaction
1,MNDQYHRAARDGYLELLKEATRKELNAPDEDGMTPTLWAAYHGNLESLRLIVSRGGDPDKCDIWGNTPLHLAASNGHLHCLSFLVSFGANIWCLDNDYHTPLDMAAMKGHMECVRYLDSIAAKQSSLNPKLVGKLKDKAFREAERRIRECAKLQRRHHERMERRYRRELAERSDTLSFSSLTSSTLSRRLQHLALGSHLPYSQATLHGTARGKTKMQKKLERRKQGGEGTFKVSEDGRKSARSLSGLQLGSDVMFVRQGTYANPKEWGRAPLRDMFLSDEDSVSRATLAAEPAHSEVSTDSGHDSLFTRPGLGTMVFRRNYLSSGLHGLGREDGGLDGVGAPRGRLQSSPSLDDDSLGSANSLQDRSCGEELPWDELDLGLDEDLEPETSPLETFLASLHMEDFAALLRQEKIDLEALMLCSDLDLRSISVPLGPRKKILGAVRRRRQAMERPPALEVTEL [D458V],decreasing interaction

# Variants of: B2
# Conditions: with ush1g_human USH1G, Q495M9
row,Variant,effect of a mutation on the interaction
1,MDRKVAREFRHKVDFLIENDAEKDYLYDVLRMYHQTMDVAVLVGDLKLVINEPSRLPLFDAIRPLIPLKHQVEYDQLTPRRSRKLKEVRLDRLHPEGLGLSVHGGLEFGCGLFISHLIKGGQADSVGLQVGDEIVRINGYSISSCTHEEVINLIRTKKTVSIKVRHIGLIPVKSSPDEPLTWQYVDQFVSESGGVRGSLGSPGNRENKEKKVFISLVGSRGLGCSISSGPIQKPGIFISHVKPGSLSAEVGLEIGDQIVEVNGVDFSNLDHKEAVNVLKSSRSLTISIVAAAGRELFMTDRERLAEARQRELQRQELLMQKRLAMESNKILQEQQEMERQRRKEIAQKAAEENERYRKEMEQIVEEEEKFKKQWEEDWGSKEQLLLPKTITAEVHPVPLRKPKYDQGVEPELEPADDLDGGTEEQGEQDFRKYEEGFDPYSMFTPEQIMGKDVRLLRIKKEGSLDLALEGGVDSPIGKVVVSAVYERGAAERHGGIVKGDEIMAINGKIVTDYTLAEAEAALQKAWNQGGDWIDLVVAVCPPKEYDDELTFF [R103H],decreasing interaction
